{
  "source": "patent US8580258",
  "about": "(DEUTSCHES KREBSFORSCHUNGSZENTRUM STIFTUNG DES OFFENTLICHEN …, dated 2013)",
  "binders": {"B1": {"name": "L1-9.3 single chain antibody (murine L1-9.3 scFv fused to human c kappa constant region) (scFv)", "scFv": "DIQMTQTTSSLSAFLGDRVTISCRASQDISNYLNWYQQKPDGTVKLLIYYTSRLHSGVPSRFSGSGSGTDYSLTISNLEQEDFATYFCQQGNTLPWTFGGGTKLEIKRTSGPGDGGKGGPGKGPGGEGTKGTGPGGQVQLQQPGAELVKSGASVNLSCRASGYTFTRYWMLWVRQRPGHGLEWVGEINPRNDRTNYNEKFKTKATLTVDRSSSTAYMQLTSLTSEDSAVYFCALGGGYAMDYWGQGTSVTVSSGGAAAAPSVFIFPPSDEQLKSGTASVVCLLNNFYPREAKVQWKVDNALQSGNSQESVTEQDSKDSTYSLSSTLTLSKADYEKHKVYACEVTHQGLSSPVTKSFNRGESHHHHHH", "notes": "The expressed portion may include the pelB leader, which is cleaved off"}, "B2": {"name": "monoclonal antibody L1-9.3, produced by the hybridoma cell deposited under DSMZ ACC2841 (antibody, V domains shown)", "VH": "QVQLQQPGAELVKSGASVNLSCRASGYTFTRYWMLWVRQRPGHGLEWVGEINPRNDRTNYNEKFKTKATLTVDRSSSTAYMQLTSLTSEDSAVYFCALGGGYAMDYWGQGTSVTVSS", "VL": "DIQMTQTTSSLSAFLGDRVTISCRASQDISNYLNWYQQKPDGTVKLLIYYTSRLHSGVPSRFSGSGSGTDYSLTISNLEQEDFATYFCQQGNTLPWTFGGGTKLEIK"}, "B3": {"name": "humanised antibody L1-hu3 (antibody, V domains shown)", "VH": "EVQLVQSGGGLVQSGGSLRLSCRASGYTFTRYWMLWVRQRPGKGLEWVAEINPRNDRTNYNEKFKTRFTISVDRSKNTLYLQMDSLRAEDTAVYFCALGGGYAMDYWGQGTLVTVSS", "VL": "DIQMTQSPSSLSASVGDRVTITCRASQDISNYLNWYQQKPGKAPKLLIYYTSRLHSGVPSRFSGSGSGTDYTLTISSLQPEDFATYFCQQGNTLPWTFGGGTKLEIK"}, "B4": {"name": "L1-9.3Hu single chain antibody (humanized L1-9.3Hu scFv fused to human c kappa constant region) (scFv)", "scFv": "DIQMTQSPSSLSASVGDRVTITCRASQDISNYLNWYQQKPGKAPKLLIYYTSRLHSGVPSRFSGSGSGTDYTFTISSLQPEDFATYFCQQGNTLPWTFGGGTKLEIKRTSGPGDGGKGGPGKGPGGEGTKGTGPGGEVQLVQSGGGLVQSGGSLRLSCRASGYTFTRYWMLWVRQRPGHGLEWVGEINPRNDRTNYNEKFKTRFTISVDRSKSTAYLQMDSLRAEDTAVYFCALGGGYAMDYWGQGTLVTVSSGGAAAAPSVFIFPPSDEQLKSGTASVVCLLNNFYPREAKVQWKVDNALQSGNSQESVTEQDSKDSTYSLSSTLTLSKADYEKHKVYACEVTHQGLSSPVTKSFNRGESHHHHHH", "notes": "The expressed portion may include the pelB leader"}, "B5": {"name": "L1-9.3Hu3 single chain antibody (humanized L1-9.3Hu3 scFv fused to human c kappa constant region) (scFv)", "scFv": "B4 scFv with F73L, H179K, G185A, S213N, A215L", "notes": "The expressed portion may include the pelB leader; also called L1-9Hu3"}},
  "key": {"[1]": {"biological_target": "streptavidin (UniProt P22629 37-163, limits assumed)", "sequence (P22629 37-163 limits assumed)": "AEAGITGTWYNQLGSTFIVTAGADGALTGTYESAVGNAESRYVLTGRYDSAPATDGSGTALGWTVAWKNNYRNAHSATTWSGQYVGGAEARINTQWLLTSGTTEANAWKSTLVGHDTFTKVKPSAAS", "experiment": "ELISA, plate coated with streptavidin at 5 µg/ml, bacterial supernatants of 8 clones, anti-human kappa HRP conjugate, TMB", "description": "Three rows of a 96 well plate were coated with 100 μl L1 antigen comprising the extracellolar domain of the L1 protein fused to an Fc fragment (5 μg/ml) in PBS for 1 hr at room temperature. A further three rows were coated with streptavidin (5 μg/ml) in PBS as a control.\nThe 96 well plate was washed four times with PBS 0.1% tween followed by the addition of 100 μl of anti-human kappa light chains bound and free antibody HRP conjugate (Sigma A7164) 1:5000 dilution in PBS 1% BSA. The conjugate was incubated for 1 hr at room temperature followed by five washes with PBS 0.1% tween.\nThe ELISA was developed by the addition of TMB 2-Component Microwell Peroxidase Substrate Kit (Kirkegaard and Perry Laboratories Inc., USA) according to the manufacturer's protocol. At least four L1 binding clones have been observed for each of three single chain antibody versions."}, "[2]": {"biological_target": "T1, recombinant L1-Fc fusion protein (human L1-Fc protein comprising the ectodomain of L1) (human, UniProt P32004 20-1120)", "T1 construct": "extracellular domain; also called L-Fc; L1 antigen; not shown: Fc fragment", "T1 sequence (P32004 20-1120)": "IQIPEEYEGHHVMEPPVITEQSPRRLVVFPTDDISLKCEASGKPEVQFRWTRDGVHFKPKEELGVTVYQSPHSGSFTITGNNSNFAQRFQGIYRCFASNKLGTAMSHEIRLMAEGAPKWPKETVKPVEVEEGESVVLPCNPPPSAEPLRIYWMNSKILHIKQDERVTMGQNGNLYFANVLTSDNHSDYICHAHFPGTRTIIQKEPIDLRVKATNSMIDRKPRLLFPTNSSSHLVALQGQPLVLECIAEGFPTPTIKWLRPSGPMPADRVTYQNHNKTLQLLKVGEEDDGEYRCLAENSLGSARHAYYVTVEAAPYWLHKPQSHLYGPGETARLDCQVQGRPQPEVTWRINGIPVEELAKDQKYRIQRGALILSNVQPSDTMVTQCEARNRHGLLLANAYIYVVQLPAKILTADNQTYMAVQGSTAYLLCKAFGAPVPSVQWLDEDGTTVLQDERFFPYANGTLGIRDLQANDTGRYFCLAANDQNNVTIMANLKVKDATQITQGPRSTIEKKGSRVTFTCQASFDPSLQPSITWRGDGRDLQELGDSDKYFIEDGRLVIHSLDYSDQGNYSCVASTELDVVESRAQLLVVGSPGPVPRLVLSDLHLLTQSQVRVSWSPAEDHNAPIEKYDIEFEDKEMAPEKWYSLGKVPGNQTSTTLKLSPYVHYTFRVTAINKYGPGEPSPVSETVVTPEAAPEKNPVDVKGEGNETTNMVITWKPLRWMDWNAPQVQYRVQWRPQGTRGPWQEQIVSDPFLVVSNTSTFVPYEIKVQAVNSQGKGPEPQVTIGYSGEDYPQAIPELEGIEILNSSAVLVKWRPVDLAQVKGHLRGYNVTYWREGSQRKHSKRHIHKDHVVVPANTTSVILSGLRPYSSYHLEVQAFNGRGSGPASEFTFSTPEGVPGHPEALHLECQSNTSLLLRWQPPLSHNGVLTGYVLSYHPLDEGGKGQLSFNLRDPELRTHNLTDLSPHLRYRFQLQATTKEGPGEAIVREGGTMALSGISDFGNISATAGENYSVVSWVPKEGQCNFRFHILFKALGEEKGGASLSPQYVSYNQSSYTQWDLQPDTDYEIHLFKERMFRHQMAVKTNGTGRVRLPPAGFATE", "experiment": "Biacore SPR, L1-Fc coupled to CM5 chip, antibody as analyte 6-3333 nM"}, "[3]": {"biological_target": "T1, recombinant L1-Fc fusion protein (human …)", "experiment": "Biacore SPR, L1-Fc on CM5 chip"}},
  "note": "Substitutions are numbered along the chain they refer to.",
  "data": [
    {"binder": "B1", "values": [
      {"measurement": "binding result", "setting": "[1]", "value": "no binding"}
    ]},
    {"binder": "B2", "values": [
      {"measurement": "Kd", "setting": "[2]", "value": 0.085, "unit": "nM"},
      {"measurement": "koff", "setting": "[2]", "value": "2.2e-05", "unit": "s⁻¹"},
      {"measurement": "kon", "setting": "[2]", "value": 260000, "unit": "M⁻¹ s⁻¹"},
      {"measurement": "Kd", "setting": "[3]", "value": 0.085, "unit": "nM"},
      {"measurement": "koff", "setting": "[3]", "value": "2.2e-05", "unit": "s⁻¹"},
      {"measurement": "kon", "setting": "[3]", "value": 260000, "unit": "M⁻¹ s⁻¹"}
    ]},
    {"binder": "B3", "values": [
      {"measurement": "Kd", "setting": "[2]", "value": 0.081, "unit": "nM"},
      {"measurement": "koff", "setting": "[2]", "value": "6.5e-05", "unit": "s⁻¹"},
      {"measurement": "kon", "setting": "[2]", "value": 800000, "unit": "M⁻¹ s⁻¹"}
    ]},
    {"binder": "B4", "values": [
      {"measurement": "binding result", "setting": "[1]", "value": "no binding"}
    ]},
    {"binder": "B5", "values": [
      {"measurement": "binding result", "setting": "[1]", "value": "no binding"}
    ]}
  ]
}
